Assay results published in paper PMC3323551.

Legend:
[1] = molecular target: T1, His-OpaR (Vibrio parahaemolyticus RIMD 2210633) (UniProt Q79YV4); assay: DNase I footprinting; details: 1 mM MgCl2, 0.5 mM EDTA, 0.5 mM DTT, 50 mM NaCl, 10 mM Tris-HCl pH 7.5, 0.05 mg/ml poly(dI-dC), room temperature, 30 min; footprinting same buffer, then …
T1 sequence: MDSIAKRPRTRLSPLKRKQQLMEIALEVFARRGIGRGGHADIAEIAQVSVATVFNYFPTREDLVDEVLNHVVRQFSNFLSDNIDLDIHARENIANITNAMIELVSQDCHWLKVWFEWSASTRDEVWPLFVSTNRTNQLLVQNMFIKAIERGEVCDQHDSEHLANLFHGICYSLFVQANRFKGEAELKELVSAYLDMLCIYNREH

[2] = molecular target: T1, His-OpaR (Vibrio parahaemolyticus RIMD 2210633); assay: EMSA; details: 1 mM MgCl2, 0.5 mM EDTA, 0.5 mM DTT, 50 mM NaCl, 10 mM Tris-HCl pH 7.5, 0.05 mg/ml poly(dI-dC), room temperature, 30 min; footprinting same buffer, then …

| Sequence | binding [1] | binding [2] |
| --- | --- | --- |
| AACCGTGAAATCCATTTACTGAGGTATTTTTCCTCATTAATTAGCAGTATAGGGTAAAAATATGAAAGCTAATGGATAATCATAAAGTAGTAGTTGGTTTTTTGCTGAGAAAGTGATTAGTAGCAATGTAACAAGTGGCATATTTGCATGCTATTGCATTTTGCAAATGCAATTTGCGAAAGTGCTGGTTAATAATGCGTCG (double strand) [qrr4 promoter fragment] | binds | binds |
| AACTTCCAACCACATAATTGCGCAGCAAATAACCAGACATTTACACTACAAAAAACCCATAAAATACCAACAAATTAGAATTATTAACTACAAAATAACTCTATTGAGTATTATGTTAGTTTTTCAGGGTAATTTTGTCCTAGTATTCCACTTCATGCTTATTATTTATATACTACTTGCCTGCTGAGAGCTCATAAATCCAATCATACCTGCTCCAGCC (double strand) [aphA promoter fragment] | binds | binds |
| AGTGGGTTGAAAGTCACATCCTTTTGCGGAAAATTCTTGGGAGCGCTGCCAAATTTTCGAAAGTTTACAGCAAAACTTATCAATAATAATGACATTACTGTCTATAAATTATCCATCAGATGTTGACCTTGTGCATATGCACCATTACACTCATCACTGCTTAAAGCAATTATTAAAATAATCAATTAGGGGGTTACCCCCAACAACAACTCAAATGGCAAGGAAAATGGATATGGACTCAATTGCAAAGAGACCTAGAACTAGGC (double strand) [opaR promoter footprinting fragment] | binds | – |
| AGTGGTTGCTTATGAATCAATCCCAGGAAAAGGCGAGAACAGCGAACCTTCAACTCGTTAACATTTTATTTTCATTTACATTTTGACTAACTCAATTGTTAATAAATTACCTAAATTGCATTTTGAAATTGCAGAATGCAATTAAGTTTTGTTTTTTGCAAAAATTTATATAGGCAATATCAGTTTATATGAGATCTTGTGCCCAAAAATAAAGCTTTGAAAATTGGCATGATTAATGCATAATACTTCTCGACC (double strand) [qrr2 promoter fragment] | binds | binds |
| GGATAAGTTCAAATTGGATCCAGCCTTAGCAGGCTCGGTTATTCTAACGACAGTGACAGATGTGGTTGGTTTTTTCGCCTTTTTGGGAACGGCGAGTTTAGTCATGCTCTAAAAAGTCCACTGTTTATTAATCAATCATTAGCATAATAGAGACAAATTGCATAACGCACTTGCAAATTGCAAAAACATTCAAAGTTTAAGCAACGTATGTCACAGAAACCAC (double strand) [qrr3 promoter fragment] | binds | binds |
